{"source": "paper PMC7797039", "about": "“G-Quadruplex loops regulate PARP-1 enzymatic activation”", "binders": {"B1": {"name": "18-bp dsDNA (dsDNA)", "DNA 1": "GGGTTGCGGCCGCTTGGG", "DNA 2": "CCCAAGCGGCCGCAACCC"}}, "key": {"PARP-1 [1]": {"target": "T1, PARP-1 (Homo sapiens, UniProt P09874 1-1014)", "T1 sequence (P09874 whole entry)": "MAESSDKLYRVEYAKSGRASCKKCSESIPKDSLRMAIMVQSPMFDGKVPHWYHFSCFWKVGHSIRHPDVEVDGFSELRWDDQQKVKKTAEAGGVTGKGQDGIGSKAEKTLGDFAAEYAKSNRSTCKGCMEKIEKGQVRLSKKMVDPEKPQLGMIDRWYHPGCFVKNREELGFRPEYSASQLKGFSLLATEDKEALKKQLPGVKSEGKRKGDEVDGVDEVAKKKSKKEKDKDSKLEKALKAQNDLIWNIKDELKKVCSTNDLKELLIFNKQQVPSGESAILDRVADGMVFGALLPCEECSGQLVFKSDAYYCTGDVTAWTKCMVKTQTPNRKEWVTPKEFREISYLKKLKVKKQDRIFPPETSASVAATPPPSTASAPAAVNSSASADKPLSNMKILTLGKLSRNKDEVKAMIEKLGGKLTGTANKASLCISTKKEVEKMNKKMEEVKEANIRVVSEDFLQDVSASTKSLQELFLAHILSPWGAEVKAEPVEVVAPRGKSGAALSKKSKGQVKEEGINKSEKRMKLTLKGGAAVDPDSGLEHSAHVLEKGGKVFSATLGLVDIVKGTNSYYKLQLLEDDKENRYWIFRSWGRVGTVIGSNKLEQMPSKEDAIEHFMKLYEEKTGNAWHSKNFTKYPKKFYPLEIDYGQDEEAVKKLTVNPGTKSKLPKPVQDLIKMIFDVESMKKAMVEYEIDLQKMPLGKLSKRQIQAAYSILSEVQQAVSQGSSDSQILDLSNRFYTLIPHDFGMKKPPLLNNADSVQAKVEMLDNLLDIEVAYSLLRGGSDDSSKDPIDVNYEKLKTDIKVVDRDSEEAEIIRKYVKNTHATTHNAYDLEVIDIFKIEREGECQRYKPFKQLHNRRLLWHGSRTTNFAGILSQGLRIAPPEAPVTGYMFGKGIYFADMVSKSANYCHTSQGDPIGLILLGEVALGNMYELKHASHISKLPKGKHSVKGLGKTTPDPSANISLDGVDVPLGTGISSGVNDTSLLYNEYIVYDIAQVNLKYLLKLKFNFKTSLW", "assay": "fluorescence anisotropy; 140 mM KCl, 8 mM MgCl2; 25 mM HEPES pH 8.0, 140 mM KCl, 8 mM MgCl2, 50 ug/ml BSA, 0.02 mM TCEP, 4% glycerol, 11.4 mM bME, 5 nM labeled DNA, 30 min room temperature, read at 25 C", "conditions": "protein: recombinant, tags: His-tag (pET28a)"}, "PARP-1 [2]": {"target": "T1, PARP-1", "assay": "fluorescence anisotropy; 140 mM KCl, 8 mM MgCl2; tighter than c-KIT, Kd in figure only; 25 mM HEPES pH 8.0, 140 mM KCl, 8 mM MgCl2, 50 ug/ml BSA, 0.02 mM TCEP, 4% glycerol, 11.4 mM bME, 5 nM labeled DNA, 30 min room temperature, read at 25 C", "conditions": "protein: recombinant; tags: His-tag (pET28a); parallel G4"}, "PARP-1 [3]": {"target": "T1, PARP-1", "assay": "fluorescence anisotropy; 140 mM KCl, 8 mM MgCl2; ~14-fold tighter than c-KIT, similar to 18-bp dsDNA; 25 mM HEPES pH 8.0, 140 mM KCl, 8 mM MgCl2, 50 ug/ml BSA, 0.02 mM TCEP, 4% glycerol, 11.4 mM bME, 5 nM labeled DNA, 30 min room temperature, read at 25 C", "conditions": "protein: recombinant; tags: His-tag (pET28a); parallel G4"}}}
{"binder": "CGGGCGGGCGCGAGGGAGGGGAGG (structured_DNA)", "note": "[c-KIT 5']", "values": [{"measurement": "Kd", "setting": "PARP-1 [1]; parallel G4", "result": "230 ± 9", "unit": "nM"}]}
{"binder": "CCCGGGCGGGCGCGAGGGAGGGGAGG (structured_DNA)", "note": "[c-KIT G4DNA]", "values": [{"measurement": "Kd", "setting": "PARP-1 [1]; parallel G4, stem-loop also possible", "result": "430 ± 60", "unit": "nM"}]}
{"binder": "TGGGTGGGTAGGGTGGGT (structured_DNA)", "note": "[c-MYC G4DNA (Pu18 T14T23)]", "values": [{"measurement": "Kd", "setting": "PARP-1 [1]; parallel G4", "result": "400 ± 50", "unit": "nM"}]}
{"binder": "B1", "values": [{"measurement": "Kd", "setting": "PARP-1 [1]; blunt", "result": "30 ± 10", "unit": "nM"}]}
{"binder": "CCCGGGCGGGCGGGAGGGGAGG (structured_DNA)", "note": "[c-KIT L2]", "values": [{"measurement": "binding result", "setting": "PARP-1 [2]", "result": "binds"}]}
{"binder": "GGGCGGGCGGGAGGGGAGG (structured_DNA)", "note": "[c-KIT 5':L2]", "values": [{"measurement": "Kd", "setting": "PARP-1 [3]", "result": "~30", "unit": "nM"}]}
